{"source": "patent US20240368269A1", "about": "(Memorial Sloan Kettering, published 2024)", "key": {"[1]": {"target": "T1, DLL3 (target in the Fab-Zap internalization assay) (UniProt Q9NYJ7 27-618, limits assumed)", "T1 sequence (looked up)": "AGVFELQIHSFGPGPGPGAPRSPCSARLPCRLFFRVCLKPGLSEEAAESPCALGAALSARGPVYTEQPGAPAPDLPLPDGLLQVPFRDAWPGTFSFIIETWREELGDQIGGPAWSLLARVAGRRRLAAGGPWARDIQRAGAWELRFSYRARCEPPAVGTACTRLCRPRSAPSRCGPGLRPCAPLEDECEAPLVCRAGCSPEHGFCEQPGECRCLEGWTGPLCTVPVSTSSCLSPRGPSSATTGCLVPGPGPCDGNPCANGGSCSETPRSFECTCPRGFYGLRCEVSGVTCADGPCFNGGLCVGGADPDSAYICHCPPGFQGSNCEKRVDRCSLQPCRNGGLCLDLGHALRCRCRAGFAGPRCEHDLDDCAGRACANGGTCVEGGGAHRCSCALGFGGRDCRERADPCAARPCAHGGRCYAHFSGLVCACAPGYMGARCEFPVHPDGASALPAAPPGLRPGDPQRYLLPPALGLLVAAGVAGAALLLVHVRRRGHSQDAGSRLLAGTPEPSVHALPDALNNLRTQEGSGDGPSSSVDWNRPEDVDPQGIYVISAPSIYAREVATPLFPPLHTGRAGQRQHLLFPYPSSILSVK", "assay": "cell-based or functional assay"}, "hDLL3": {"target": "T2, hDLL3 (human, UniProt Q9NYJ7 27-492, limits assumed)", "T2 construct": "also called human DLL3", "T2 sequence": "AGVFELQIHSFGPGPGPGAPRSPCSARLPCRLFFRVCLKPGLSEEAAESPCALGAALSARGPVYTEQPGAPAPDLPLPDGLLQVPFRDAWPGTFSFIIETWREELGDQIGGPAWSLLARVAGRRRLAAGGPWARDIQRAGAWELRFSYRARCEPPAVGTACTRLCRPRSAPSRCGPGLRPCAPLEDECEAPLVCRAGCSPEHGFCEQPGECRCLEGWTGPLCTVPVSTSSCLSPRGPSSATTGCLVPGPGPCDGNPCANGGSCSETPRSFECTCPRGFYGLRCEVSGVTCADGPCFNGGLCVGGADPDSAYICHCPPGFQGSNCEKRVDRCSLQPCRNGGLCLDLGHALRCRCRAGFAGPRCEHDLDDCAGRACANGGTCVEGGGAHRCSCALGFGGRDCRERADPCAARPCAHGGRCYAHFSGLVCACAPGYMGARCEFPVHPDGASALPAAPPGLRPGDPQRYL", "assay": "Affinity hDLL3 of Table 30; method not given"}}}
{"binder": "E9 (antibody, V domains shown) VH: QVQLVQSGAEVKKPGASVKVSCKASGYTFTSYYMHWVRQAPGQGLEWMGVINSSGGSTSYAQKFQGRVTMTRDTSTSTVYMDLSSLRSEDTAVYYCARGYCTNGVYYDEDFDYWGQGTLVTVSS VL: DIQMTQSPSSLSASVGDRVTITCRASQGISHYLAWFQQKPGKAPTSLIYAASSLQSGVPSKFSGSGSGTDFTLTISSLQPEDFATYYCQQYNSYPLTFGGGTKVEIK", "values": [{"measurement": "Percent Max Killing (Fab-Zap internalization assay, 10 ug/ml)", "setting": "[1]", "result": 61.4, "unit": "%"}]}
{"binder": "B22 (antibody, V domains shown) VH: EVQLVESGGGLVQPGGSLRLSCAASGFTFNNFWMSWVRQAPGKGLEWVANIKQDGSEKYYVDSVKGRFTISRDNAKNSLYLQMNSLRAEDTAVYYCARESYFDLWGRGTLVTVSS VL: QAVVTQESALTTSPGETVTLTCRSSTGAVTTSNYANWVQEKPDHLFTGLIGGTNNRAPGVPARFSGSLIGDKAALTITGAQTEDEAIYFCALWYSNRWVFGGGTKLTVL", "values": [{"measurement": "Percent Max Killing (Fab-Zap internalization assay, 10 ug/ml)", "setting": "[1]", "result": 61.9, "unit": "%"}]}
{"binder": "B2 (antibody, V domains shown, Purified hybridoma monoclonal antibody (Ablexis AlivaMab Kappa mice); format there not clear; also called 3-B2-A) VH: QVQLVQSGAEVKKPGASVKVSCKASGYTFTSYYMHWVRQAPGQGLEWMGIINPSGGSTSYAQKFRGRVTMTRDTSTSTVYMELSSLRSEDTAVYYCARGDYDILTDYYYNMDVWGQGTTVTVSS VL: DIQMTQSPSAMSASVGDRVTITCRASQGISNYLAWFQQKPGKVPKRLIYAASSLQSGVPSRFSGSGSGTEFTLTISSLQPEDFATYYCLQHNSYPYTFGQGTKLEIK", "values": [{"measurement": "Kd", "setting": "hDLL3", "result": 3.55, "unit": "nM"}, {"measurement": "Percent Max Killing (Fab-Zap internalization assay, 10 ug/ml)", "setting": "[1]", "result": 71.4, "unit": "%"}]}
{"binder": "I1 (antibody, V domains shown) VH: EVQLVESGGGLVKPGGSLRLSCAASGFTFSNTWMSWVRQAPGKGLEWVGRIKSKSDGGTTDYAAPVKGRFTISRDDSKNTLYLQMNSLKTEDTAVYYCTQYYWNSFDYWGQGTLVTVSS VL: not shown", "values": [{"measurement": "Percent Max Killing (Fab-Zap internalization assay, 10 ug/ml)", "setting": "[1]", "result": 97, "unit": "%"}]}
{"binder": "G23 (antibody, V domains shown) VH: QVQLVQSGAEVKKPGASVKVSCKASGYTFTSYYIHWVRQAPGQGLEWMGIIDPSDGSTNYAQKFQGRVTMTRDTSTSTVYMELSSLRSEDTAVYYCARDREYNYYGLDVWGQGTTVTVSS VL: not shown", "values": [{"measurement": "Percent Max Killing (Fab-Zap internalization assay, 10 ug/ml)", "setting": "[1]", "result": 94, "unit": "%"}]}
